Substitutions are numbered along the chain they refer to.
T1: FrgB (Myxococcus xanthus (strain DZ2 genomic …, UniProt Q9RF10 1-510))
T1 sequence (looked up): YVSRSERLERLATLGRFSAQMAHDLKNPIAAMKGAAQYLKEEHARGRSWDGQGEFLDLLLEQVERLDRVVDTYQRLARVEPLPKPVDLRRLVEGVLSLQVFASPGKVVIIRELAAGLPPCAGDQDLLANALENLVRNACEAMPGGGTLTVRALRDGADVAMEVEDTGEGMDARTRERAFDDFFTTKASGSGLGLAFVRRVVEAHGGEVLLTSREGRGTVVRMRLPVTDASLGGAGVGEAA

T2: HK1190 (Myxococcus xanthus (strain DZ2 genomic …, UniProt Q1DD24 1-424))
T2 sequence (looked up): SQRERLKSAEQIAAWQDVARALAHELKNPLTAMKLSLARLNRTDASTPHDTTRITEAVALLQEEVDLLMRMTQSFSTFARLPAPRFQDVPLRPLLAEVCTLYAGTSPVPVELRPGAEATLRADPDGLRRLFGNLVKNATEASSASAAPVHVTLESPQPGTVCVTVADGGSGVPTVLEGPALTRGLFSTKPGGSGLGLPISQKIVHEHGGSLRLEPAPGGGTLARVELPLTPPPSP

T3: T. maritima HK853 (T. maritima, UniProt Q9WZV7 232-489)
T3 sequence (looked up): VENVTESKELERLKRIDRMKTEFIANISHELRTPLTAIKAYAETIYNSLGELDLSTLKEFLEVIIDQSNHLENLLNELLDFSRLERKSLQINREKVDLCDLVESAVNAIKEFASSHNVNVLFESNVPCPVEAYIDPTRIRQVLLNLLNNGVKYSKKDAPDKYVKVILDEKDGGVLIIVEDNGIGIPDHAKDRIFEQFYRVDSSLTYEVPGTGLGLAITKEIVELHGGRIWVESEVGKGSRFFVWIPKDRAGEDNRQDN

T4: CrdA (Myxococcus xanthus (strain DZ2 genomic …, UniProt Q84I63 1-498))
T4 sequence (looked up): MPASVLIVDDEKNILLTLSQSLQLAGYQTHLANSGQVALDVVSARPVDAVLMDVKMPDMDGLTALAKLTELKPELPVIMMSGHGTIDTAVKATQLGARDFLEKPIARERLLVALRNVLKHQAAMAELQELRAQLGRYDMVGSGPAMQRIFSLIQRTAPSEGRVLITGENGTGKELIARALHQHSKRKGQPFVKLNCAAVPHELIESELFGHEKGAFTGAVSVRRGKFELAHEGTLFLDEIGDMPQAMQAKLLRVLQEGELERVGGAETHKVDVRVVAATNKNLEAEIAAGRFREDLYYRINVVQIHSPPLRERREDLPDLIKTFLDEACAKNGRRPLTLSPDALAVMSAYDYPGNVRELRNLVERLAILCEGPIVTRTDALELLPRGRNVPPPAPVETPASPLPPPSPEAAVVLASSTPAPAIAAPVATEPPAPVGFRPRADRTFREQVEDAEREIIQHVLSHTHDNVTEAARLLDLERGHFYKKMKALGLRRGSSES

B1: NtrC1189 (domain or fragment, UniProt Q1DD25 1-450, looked up)
chain: MKPGPRILIVDDDSGVLRALRGLLSDEGFTPVEARSAAEASQLLDAPEGPPAMMLLDLRMPGETGLELLARLPRPFPAPVVVLSGEASPAEAVQALRLGATDFVEKPPSPERLLTAVRNALALGS
B2: CrdS (domain or fragment)
chain: RLMASERIAAWQEVARRLAHEIKNPLTPIRMSLETLQAAQEAKHPRFQDMFKESAGVVLEEVDRLRRIVDEFSHFARMPKPQLAPVDLGELAQSVLALYATPPTGIQILPTLQTGVVARVDRDQLTQVLVNLVKNAEEAMASTGGTLRVRVRSTEADAIVEVEDSGPGIPLEHRARIFEPYFTTKDGGTGLGLAIASRILQEHGGKLEVGGEPGHGARFSLVLPRAA
B3: CrdS6 (domain or fragment)
chain: B2 chain with P28A, M31L, E34A, T35R
B4: FrgC (domain or fragment, UniProt Q9RF09 1-466, looked up)
chain: MNESLRGTVLLVDDDPAVAKVLGALLTQAGLTTHAARDGQEALALLASKPVDVVVSDVRMPGMDGLQVLAEVARGWPDVPVILLTAHGTVPLAVEAMKAGAADFVLKPFDREEILFTVRKALLRAQG
B5: T. maritima RR468 (natural protein, UniProt Q9WYT9 1-122, looked up)
chain: MSKKVLLVDDSAVLRKIVSFNLKKEGYEVIEAENGQIALEKLSEFTPDLIVLDIMMPVMDGFTVLKKLQEKEEWKRIPVIVLTAKGGEEDESLALSLGARKVMRKPFSPSQFIEEVKHLLNE

Columns and labels:
[1] = biological target: CrdS6 (Myxococcus xanthus (strain DZ2 genomic DNA)); test: other fluorescence titration
[2] = biological target: CrdS6 (Myxococcus xanthus (strain DZ2 genomic DNA)); test: ITC
[3] = biological target: FrgB (Myxococcus xanthus (strain DZ2 genomic DNA)) (UniProt Q9RF10); test: ITC
[4] = biological target: T. maritima HK853 (T. maritima) (UniProt Q9WZV7); test: ITC
[5] = biological target: T1, FrgB; test: ITC
[6] = biological target: T2, HK1190; test: ITC
[7] = biological target: T3, T. maritima HK853; test: ITC
[8] = biological target: T4, CrdA; test: other fluorescence titration
[9] = biological target: T4, CrdA; test: ITC
[10] = biological target: B4; test: ITC
[11] = biological target: B1; test: ITC
[12] = biological target: B5; test: ITC

Row | Molecule | Kd [5] | Kd [6] | Kd [7] | Kd [11] | other results
1 | CrdA (from UniProt Q84I63 1-498) (domain or fragment) |  |  |  |  | Kd [1]: > 200 µM; Kd [2]: > 75 µM; Kd [3]: > 75 µM; Kd [4]: > 75 µM
2 | B1 | > 75 µM | 1.23 µM | > 55 µM |  | 
3 | B2 |  |  |  | > 75 µM | Kd [8]: 2.28 ± 0.66 µM; Kd [9]: 1.41 µM; Kd [10]: > 75 µM; Kd [12]: > 75 µM
4 | B3 |  |  |  | 2.09 µM | 
5 | B4 | 1.23 µM | > 35 µM | > 55 µM |  | 
6 | B5 | > 75 µM | > 55 µM | 1.16 µM |  | 

Source: publication PMC3892784 (mBio, 2013)
